Residue numbers refer to the chain shown, from its start.

Our source for the binding result and Kd values is paper PMC11162469, “Discovery of RXFP2 genetic association in resistant hypertensive men and RXFP2 antagonists for the treatment of resistant hypertension” (Scientific Reports, 2024).

What all share (details): both partners purified
Assay [1] has as its target T1, human LDLa-linker protein (huRXFP2-LDLa-linker(38-105)) (Homo sapiens, UniProt Q8WXD0).
T1 construct: relaxin family peptide receptor 2 (RXFP2), human, LDLa module and linker, residues 38-105; Expressed as LDLa-linker, enterokinase site, rat Fc, 8xHis; The Biacore methods say only 'LDLa-linker protein'; also called human LDLa-linker domain; source: Expi293, transfected, purified (Histrap excel, SEC); enterokinase digestion, Hispur Ni resin, Superdex 200; not shown: rat Fc, C-terminal, cleaved; …
In words: SPR; Biacore S200; goat anti-rat Fc gamma immobilised on a Series S CM5 chip, purified recombinant rat anti-RXFP2 antibodies captured at 5 µg/mL; rat or human LDLa-linker protein flowed as analyte at 20, 10, 5, 2.5, 1.75 and 0 nM; 1:1 fit model. (In general: SPR reads the build-up and loss of mass on a sensor chip optically.)

Assay [2] concerns the target T2, rat LDLa-linker protein (ratRXFP2-LDLa-linker(20-88)) (Rattus norvegicus, UniProt Q5ECL0).
T2 construct: relaxin family peptide receptor 2 (RXFP2), rat, LDLa module and linker, residues 20-88; Expressed as LDLa-linker, enterokinase site, rat Fc, 8xHis; The Biacore methods say only 'LDLa-linker protein'; also called rat LDLa-linker domain; source: Expi293, transfected, purified (Histrap excel, SEC); enterokinase digestion, Hispur Ni resin, Superdex 200; not shown: rat Fc, C-terminal, cleaved; 8xHis, …
The assay is described as above.

Assay [3] addresses T3, linker-less human LDLa peptide (Q8WXD0 43-80) (Homo sapiens, UniProt Q8WXD0, not fully specified).
T3 construct: relaxin family peptide receptor 2 (RXFP2), human, LDLa module without the linker, residues 43-80; also called LDLa linker-less domain
T3 chain: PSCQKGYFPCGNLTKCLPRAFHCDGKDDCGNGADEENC
The assay can be described thus: ELISA; human LDLa peptide (Q8WXD0 43-80) immobilised at 1 µg/mL in PBS on Maxisorp plates overnight at 4 °C; purified antibodies from 5 µg/mL, diluted 1:2 for 8 points, 1 h at room temperature; HRP secondary antibody, TMB. In general terms: An ELISA detects its analyte on a solid surface through an enzyme-linked reagent.

T1 sequence (Q8WXD0 38-105): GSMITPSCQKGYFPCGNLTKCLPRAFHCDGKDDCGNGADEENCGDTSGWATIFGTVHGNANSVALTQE
T2 sequence (Q5ECL0 entry or part of it): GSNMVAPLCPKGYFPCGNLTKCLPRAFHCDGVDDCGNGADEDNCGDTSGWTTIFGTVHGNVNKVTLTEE

B1: RXFP2 mAb 1G1 (antibody, V domains shown)
VH: EVQLQQSGPELVKPGASVKMSCKASGYTFTDYNMHWVKQKPGQGLEWIGYINPYNDGTEYNEKFKGKATLTSDKSSSTAYMDLSSLTSEDSAVYYCARGLWFAMNYWGQGTSVTVSS
VL: DIQMTQSSSSFSVSLGDRVTITCKASEDIYNRLAWYQQKPGNTPRLLISGATILETGVPSRFSGSGSGKDYTLSIISLQTEDVATYYCQQYWIIPPTFGGGTKLEIK
notes: heavy chain variable domain; rat IgG2b heavy chain constant region (rat IgG2b backbone, in-house construct); Recombinant in a rat IgG2b backbone; found as a mouse hybridoma clone; source: Expi293, transfected, purified (Protein G)
The term Kd denotes the equilibrium constant for the complex coming apart. As for B1, the binding result in assay [1] is reported as “no binding (tested: 20 nM (highest analyte concentration))”. For the same molecule, the Kd in assay [2] worked out at 0.18 nM.

B2: RXFP2 mAb 3F3 (antibody, V domains shown)
VH: QVQLQQPGSVLVRPGASVKLSCKASGYIFTSYWMHWVKQRPGQGLEWIGEIYPNSGRTSYNEKFKGKATVTVDTSSSTAYVDLSSLTSEDSAVYYCASGGHWFAYWGQGTLVTVSA
VL: B1 VL with T43A, I53S, T56A, I76T, A84S, I94T, P96Y
notes: as for B1
B2: the binding result in assay [1] is reported as “no binding (tested: 20 nM (highest analyte concentration))”. Moreover, the Kd in assay [2] came out at 11.4 nM.

B3: RXFP2 mAb 2H3 (antibody, V domains shown)
VH: QVTLKESGPGILQPSQTLSLTCSFSGFSLSTSGMSVGWIRQPSGKGLEWLAHIWWNDDKYYNPALKSRLTISKDTSNNQVFLKIASVVTADTATYYCARIGYYDGSPHAMDYWGQGTSVTVSS
VL: not shown
notes: as for B1
Consider B3, for which the binding result in assay [1] is reported as “no binding (tested: 20 nM (highest analyte concentration))”.

B4: RXFP2 mAb 1F2 (antibody, V domains shown)
VH: QVQLKQSGPGLVQPSQSLSITCTVSGFSLTAYGVNWVRQSPGKGLEWLGVIWSGGNTDYNAPFISRLSITKDNSKSQVFFKMNSLEADDTAIYYCARAKGYYAMDYWGQGTSVTVSS
VL: DIQMTQSPASLSVSVGESVTITCRATENIYSNLVWYQQKQGQSPQLLVYAVTSLADGVPSRFSGSGSGTQYSLKINSLQSEDFGTYYCQHFWGTPYTFGGGTKLEIK
notes: as for B1
For the molecule B4, the binding result in assay [1] was “no binding (tested: 20 nM (highest analyte concentration))”. In addition, the Kd in assay [2] turned out to be 0.69 nM.

B5: RXFP2 mAb 3H1 (antibody, V domains shown)
VH: QVQLKETGPGLVAPSQSLSITCTVSGFSLTNYGVNWVRQPPGKGLEWLVVIWSDGSTNYNSALKSRLSISKDNSKSQVFLKMNSLQTDDTAMYYCARQQGYYAMDYWGQGTSVIVSS
VL: B4 VL with S18T, T26S, V34A, Q42K, S53N, T85S, T94P
notes: as for B1
In the case of B5, the binding result in assay [1] is “no binding (tested: 20 nM (highest analyte concentration))”. Besides, the Kd in assay [2] came out at 1.89 nM.

B6: RXFP2 mAb 3G4 (antibody, V domains shown)
VH: QVQLKESGPGLVAPSQSLSITCTVSGFSLTSYGVSWVRQPPGKGLEWLGVIWGDGSTNYHSALISRLSISKDNSKSQVFLKLNSLQTDDTATYYCAKSLGYYAMDYWGQGTSVTVSS
VL: B4 VL with S18T, T26S, Q42K, V51A, S53N, D56E, T85S, T94P, Y96W
notes: as for B1
For B6, the binding result in assay [1] is given as “no binding (tested: 20 nM (highest analyte concentration))”. Further, in assay [2], the Kd is 2.07 nM.

B7: RXFP2 mAb 2D4 (antibody, V domains shown)
VH: QVQLKESGPGLVAPSQSLSITCTVSGFSLTTYGISWVRQPPGKGLEWLGVIWTGGGTNYNSALKSRLSISKDNSKSQVFLKMNSLQTDDTARYYCARTEGYYVMDYWGQGTSVTVSS
VL: B4 VL with S18T, T26S, Q42K, V51A, S53N, S77N, T94P, Y96W
notes: as for B1
Turning to B7, in assay [1], the binding result is recorded as “no binding (tested: 20 nM (highest analyte concentration))”. The Kd in assay [2] was 0.52 nM.

B8: RXFP2 mAb 4H5 (antibody, V domains shown)
VH: QVQLKQSGPGLVQPSQSLSITCTVSGFSLTNYGVHWVRQSPGKGLEWLGVIWRDGNTDYNAAFMSRLSITKDNSKSQVFFEMNSLQVDDTAIYYCCRGDGYYAMGYWGQGTSVTVSS
VL: B4 VL with S18T, T26S, V34A, K39R, Q42R, V51A, S53N, T85N, T94S, Y96R
notes: as for B1
For B8, the binding result in assay [1] is reported as “no binding (tested: 20 nM (highest analyte concentration))”. Further, the equilibrium dissociation constant (Kd) in assay [2] is 0.35 nM.

B9: RXFP2 mAb 4H2 (antibody, V domains shown)
VH: QVQLRQSGPSLVQPSQSLSITCTVSGFSLTNYGVHWVRQSPGKGLEWLGVIWRGGNTDHNAAFMSRLSITKDNSESQVFFKMNSLQVDDTAIYYCAKAEGYYALDYWGQGTSVTVYS
VL: B4 VL with S18T, T26S, V34A, Q42K, S53N, T85S, Y96W
notes: as for B1
For the molecule B9, the binding result in assay [1] is on record as “no binding (tested: 20 nM (highest analyte concentration))”. For the same molecule, in assay [2], the Kd came to 0.32 nM.

B10: RXFP2 mAb 3F1 (antibody, V domains shown)
VH: QVQLKESGPGLVAPSQSLSITCTVSGFSLTDYGVSWIRQPPGKGLEWLGVIWGGGSTDYNPALKSRLSISKDNSKSQVFLKMNSLQADDTAMYYCVKHEGYYAMDYWGQGTSVTVSS
VL: B4 VL with S18T, T26S, V34A, Q42K, Q45H, S53N, T85S
notes: as for B1
In the case of B10, in assay [1], the binding result is reported as “no binding (tested: 20 nM (highest analyte concentration))”. Moreover, the Kd in assay [2] is 1.24 nM.

B11: RXFP2 mAb 4B8 (antibody, V domains shown)
VH: QVQLKQSGPGLVQPSQSLSITCTVSGFSLSRYGVHWVRQSPGKGLEWLGVIWSGGSTEYNAVFKSRLSISKDNSKSQVFFKMNSLQANDTAIYYCVRADGYYAMEYWGQGTSVTVSS
VL: B4 VL with S18T, T26S, V34A, Q42K, S53N, T85N
notes: as for B1
In the case of B11, the binding result in assay [1] is recorded as “no binding (tested: 20 nM (highest analyte concentration))”. For the same molecule, in assay [2], the Kd is 0.55 nM.

B12: RXFP2 mAb 4G6 (antibody, V domains shown)
VH: EVQLQQSGPELVKPGASVKLSCKASGYTFTSYVMHWVKQKPEQGLEWIGYKNPSNDGIKYNEKFKGKATLTSDKSSNIAYMELFSLTSEDSAVYYCARSDFGSVWAMDYWGQGTSVTVSS
VL: SIVMTQTPKFLLVSAGDRVTITCKASQSVNDDIVWYQQKPGQSPKLLIYYASNRYTGVPDRFTGSGYGTDFTFTISTVQAGDLAVYFCQQDYSSPFTFGSGTKLEIK
notes: as for B1
With B12, in assay [3], the binding result is listed as “binds”. Further, the values for the Kd in assay [1] and in assay [2] were 2.91 nM and 0.21 nM, respectively.

B13: RXFP2 mAb 4A5 (antibody, V domains shown)
VH: DVQLVESGGGLVQPGGSRKLSCAASGFTFSTFGMHWVRQAPEKGLEWVAYISSGSSTIYYADTVKGRFTISRDNPKNTLFLQMTSLRSDDTAMYYCSRSYYGSAHYFDYWGQGTTLTVSS
VL: DIQMTQSPASLSVSVGETVTITCRASENIYSNLAWYQQKQGKSPQLLVYVATNLADGVPSRFSGSGSGTQYSLRINNLQSEDFGNYYCQHFWGTPPTFGGGTKLEIK
notes: as for B1
Take B13: the binding result in assay [1] is reported as “no binding (tested: 20 nM (highest analyte concentration))”. Further, the Kd in assay [2] was found to be 4.23 nM.

B14: RXFP2 mAb 4H1 (antibody, V domains shown)
VH: QIQLVQSGPELKKPGETVKISCKTSGYTFTKYPMHWVKQAPGEGLKWMGWINTYSGLPTFADDFKGRFAFSLETSANTADLQINNLKNEDMATYFCAREGKKLSGYFDYWGQGTTLTVSS
VL: DIKMTQSPSSMYASLGERVTITCKASQDINSYLTWFQQKPGQSPKTLIYRANRFVDGVPSRFSGSGSGQDYSLTITSLEYEDMGIYYCLQYDEFPYTFGGGTQLEIK
notes: as for B1
For B14, the binding result in assay [1] was “no binding (tested: 20 nM (highest analyte concentration))”. Also, in assay [2], the Kd stood at 1.01 nM.

B15: RXFP2 mAb 4F6 (antibody, V domains shown)
VH: EVQLQQSGPELVKPGASVKMSCKASGYTFTNYVLHWVKQKPGQGLEWIGYINPYNDGSKYNEKFKGRATLTSDKSSSTAYMELSSLTSEDSAVYYCARGGWLLDYFDYWGQGTTLTVSS
VL: DVLMTQSPLSLPVSLGEQASISCRSSQSIVHSDGDTYLEWYLQKPGQSPNLLIYKVSNRFSGVPDRFSGSGSGTDFTLKISRVEAEDLGVYYCFQGSHVPPTFGGGTKLEIK
notes: as for B1
Take B15: in assay [3], the binding result is “binds”. The Kd in assay [1] was 11.7 nM; in assay [2] it was 1.7 nM.

B16: RXFP2 mAb 4B1 (antibody, V domains shown)
VH: QVQLQQSGAELVRPGSSVRISCKASGYAFSNSWINWVKQRPGQGLEWMGQIYPGDGNTNYNGRFKDKATLTADKSSSTAYMQLSSLTSEDSAVYFCARDHNYWGQGTTLTVSS
VL: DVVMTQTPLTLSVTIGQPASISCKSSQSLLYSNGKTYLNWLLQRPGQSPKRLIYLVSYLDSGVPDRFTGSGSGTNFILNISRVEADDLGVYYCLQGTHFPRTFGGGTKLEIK
notes: as for B1
With B16, the binding result in assay [3] is listed as “no binding (tested: 5 µg/mL (highest antibody concentration))”. Also, the dissociation constant Kd in assay [1] stood at 2.75 nM; in assay [2], 1.97 nM.

B17: RXFP2 mAb 4G7 (antibody, V domains shown)
VH: EVKLVESGGGLVQPGASLRLSCATSGFTFTDYYMSWVRQPPGKALEWLGFIRNKATGYTTEYSASVKGRFTISRDNSQSILYLQMNTLRAEDSATYYCARDLYYGDWYFDVWGAGTTVTVSS
VL: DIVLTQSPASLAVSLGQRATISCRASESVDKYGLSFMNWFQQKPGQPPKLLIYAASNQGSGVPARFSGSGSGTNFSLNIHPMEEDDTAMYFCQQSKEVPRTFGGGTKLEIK
notes: as for B1
With B17, in assay [1], the binding result is “no binding (tested: 20 nM (highest analyte concentration))”.
